# Source: PMC8392543
# Numbering of substitutions follows the chain as printed. Names and notes keep the numbering of the source.
# B1: EsOgl (Exiguobacterium artemiae 255-15; A109P/E176P/K441P/S130P) (protein)
# chain: MERKWWHDSVVYQIYPRSFNDSNGDGIGDLVGIIEKLDYLKELGIDVIWLSPVYDSPNDDNGYDIRDYEAIMSEFGTMADFDRLLDQAHERGIKIVMDLVINHSSDEHPWFAESRKSKDNPYRDYYIWRPANEDGTLPNNWGSIFSGPAWELDEATNEYYLHLFSKKQPDLNWENPKLRQEVYQMITRWLDRGIDGFRMDVINLISKTPGLPDATVPPGALYGDGGQHYINGPRIHEFLKEMNDASFGNYDVLTVGEMPGATTDDAILYTDPERKEVNMVFTFEHMDLDSGPGGKWDVKPFDLQKLKENFTKWQVALHEKGWNSLYWNNHDQPRVVSRFGNDTTYRVESAKMLATLLHLLKGTPYIYQGEEIGMTNVAFESIEDYEDIEIRNMWKERTEQGASPAELLRAVHVKGRDNARTPIQWDATEHAGFTTGTPWLPVNPNYPTINVEQALEDPDSIFYYYKQLIALRHQHDVIVYGEYALILEEETDIYAYTRTYENETWYIYCSFSQEEVTVPLSHDTSDPVIGNYSESPAGSKEELVLRPYEAIVYRTTR
# B2: EsOgl (Exiguobacterium artemiae 255-15; A109P/E176P/S130P) (protein)
# chain: B1 chain with P441K
# B3: EsOgl (Exiguobacterium artemiae 255-15; S130P) (protein)
# chain: B1 chain with P109A, P176E, P441K
# B4: EsOgl (Exiguobacterium artemiae 255-15; A109P) (protein)
# chain: B1 chain with P130S, P176E, P441K
# B5: EsOgl (Exiguobacterium artemiae 255-15; K441P) (protein)
# chain: B1 chain with P109A, P130S, P176E
# B6: EsOgl (Exiguobacterium artemiae 255-15; A109P/S130P) (protein)
# chain: B1 chain with P176E, P441K
# B7: EsOgl (Exiguobacterium artemiae 255-15) (protein)
# chain: B1 chain with P109A, P130S, P176E, P441K
# B8: EsOgl (Exiguobacterium artemiae 255-15; E176P) (protein)
# chain: B1 chain with P109A, P130S, P441K
# Substrate: O=[N+]([O-])c1ccc(O[C@H]2O[C@H](CO)[C@@H](O)[C@H](O)[C@H]2O)cc1
# Assay: purified protein
# Conditions: 33 mM potassium phosphate pH 7.0, 25 °C
Protein,Km [µM],kcat/Km [M⁻¹ s⁻¹]
B1,850 ± 20,167000
B2,920 ± 70,217000
B3,1660 ± 60,250000
B4,1430 ± 90,167000
B5,930 ± 80,183000
B6,1370 ± 40,167000
B7,1060 ± 20,233000
B8,1970 ± 80,167000
